From paper PMC5514147, “Characterization of HIV-1 integrase interaction with human Ku70 protein and initial implications for drug targeting” (Scientific Reports, 2017)

Target: T1, Ku70_1-250 mutant (N-terminal alpha/beta-domain of Ku70) with N-terminal GST-tag (human, UniProt P12956 1-250)
T1 construct: Ku70, human, residues 1-250 (N-terminal alpha/beta domain); also called Ku_1-250; Ku70 N-terminal domain; not shown: GST, N-terminal, kept
Test: pull-down; GST-pull-down: GST-Ku70 proteins (or GST) held on glutathione-agarose, His6-IN proteins as prey; buffer A (20 mM Hepes pH 7.5, 100 mM NaCl, 7.5 mM MgCl2, 2 mM 2-mercaptoethanol, 50 ug/ml BSA, 0.1% NP40), room temperature, Western blot; Kd from increasing IN at 50 nM Ku70 mutant
Conditions: both partners purified

T1 sequence (P12956 1-250, change not shown): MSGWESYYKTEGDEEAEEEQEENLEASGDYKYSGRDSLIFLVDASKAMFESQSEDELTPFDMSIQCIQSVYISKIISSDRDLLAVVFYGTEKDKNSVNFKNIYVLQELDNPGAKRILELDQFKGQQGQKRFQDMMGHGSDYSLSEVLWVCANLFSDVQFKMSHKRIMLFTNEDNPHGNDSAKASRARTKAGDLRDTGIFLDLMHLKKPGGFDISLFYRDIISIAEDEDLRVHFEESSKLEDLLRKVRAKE

B1: IN_1-220 (HIV-1 integrase with truncated C-terminal domain), N-terminal His6-tag (domain or fragment)
chain: FLDGIDKAQDEHEKYHSNWRAMASDFNLPPVVAKEIVASCDKCQLKGEAMHGQVDCSPGIWQLDCTHLEGKVILVAVHVASGYIEAEVIPAETGQETAYFLLKLAGRWPVKTIHTDNGSNFTGATVRAACWWAGIKQEFGIPYNPQSQGVVESMNKELKKIIGQVRDQAEHLKTAVQMAVFIHNFKRKGGIGGYSAGERIVDIIATDIQTKELQKQITKI
notes: not shown: His6, N-terminal, kept
For B1, the Kd was 120 ± 30 nM.
